1 molecule from paper PMC4682845 (PLoS ONE, 2015) can be followed below.

In general, Kd refers to the free concentration of one partner at which half of the binding sites on the other are occupied at equilibrium, for simple one-to-one binding. A high value points to weaker binding. One may read the koff as a measure of how fast the partners let go of each other. A word on the kon: it is the rate constant with which the complex forms.

The data set “AUC” concerns the molecule itself. The data set can be described thus: AUC.
Data set [1] deals with […]-para-nitroanilide (TQ6-pNA) peptide substrate. The data set can be described thus: ITC + other: steady-state kinetics. The following applies: both partners purified.

B1: SARS-CoV main protease (M^pro), wild type (enzyme)
chain: SGFRKMAFPSGKVEGCMVQVTCGTTTLNGLWLDDTVYCPRHVICTAEDMLNPNYEDLLIRKSNHSFLVQAGNVQLRVIGHSMQNCLLRLKVDTSNPKTPKYKFVRIQPGQTFSVLACYNGSPSGVYQCAMRPNHTIKGSFLNGSCGSVGFNIDYDCVSFCYMHHMELPTGVHAGTDLEGKFYGPFVDRQTAQAAGTDTTITLNVLAWLYAAVINGDRWFLNRFTTTLNDFNLVAMKYNYEPLTQDHVDILGPLSAQTGIAVLDMCAALKELLQNGMNGRTILGSTILEDEFTPFDVVRQCSGVTFQ
In turn, B1 had a Kd in the data set “AUC” of 700 ± 20 nM. Further, in data set [1], the off-rate constant (koff) is 0.084 s⁻¹ and the kon came to 2460 M⁻¹ s⁻¹.
